Reference: PMC9563126, “Identification of a flavonoid C-glycosyltransferase from fern species Stenoloma chusanum and the application in synthesizing flavonoid C-glycosides in Escherichia coli” (Microbial Cell Factories, 2022)
Positions count from the first letter of the chain named. Names may count otherwise.

B1: ScCGT1 (Odontosoria chinensis) (protein)
chain: MASCDTGLLSDQRHHALMFPYPVQGHIQPFMRLSKLLATNYGFTISFFNSEENHRRLLADRDEPASQEDRAEDAEGKPLDFRMLFLPDVLPSSTEVEQMSAGTHIEKSHVLLSKTFLNTDPAALETLIRSQSPPITCLILDPLVTVIAPGLGEKLGITSLIFFPASAASLATAIRSGEVDGDAKQMTRIVGAPVLDVKEVNPFLSICGRGHSDFMARLFTQPFRKKLIKANDIILINTVEELEESTLKHLQEENKVCAIGPVLPPWGAFAVPTLWSQDYSCLDWLDKQPAASVLFVSFGSLATLSSTQLSDLALGLEASNQRILWVTRPDQIYGKAPDLPSDFLERIKDRILVFSWVPQLHVLCHTSVGGFLSHCGWNSTIESIAAGVPILAWPFFGDQMLNAKCVVEKWRIGLALTGAGGAMSKAVVETRVKDLMEGDLSKELRNRAQNLKHIVVKALSHGGSSSSNLQKLFGHL
B2: ScCGT1 (Odontosoria chinensis; P164T) (protein)
chain: B1 chain with P164T

Key:
[1] = substrate: O=C(CCc1ccc(O)cc1)c1c(O)cc(O)cc1O; test: HPLC glycosylation assay, Lineweaver-Burk; format: biochemical, Odontosoria chinensis; settings: 1 mM UDP-glucose, 200 mM MES pH 6.5, 1 mM DTT, 30 °C, 15 min, acceptor varied
From the text: (§1) HPLC glycosylation assay, Lineweaver-Burk on ScCGT1

[2] = substrate: O=C1CC(O)(c2ccc(O)cc2)Oc2cc(O)cc(O)c21; test: HPLC glycosylation assay, Lineweaver-Burk; format: biochemical, Odontosoria chinensis; settings: 1 mM UDP-glucose, 200 mM MES pH 6.5, 1 mM DTT, 30 °C, 15 min, acceptor varied
From the text: as §1

| Protein | Km [1] | Vmax [1] | kcat [1] | kcat/Km [1] | Km [2] | Vmax [2] | kcat [2] | kcat/Km [2] |
| --- | --- | --- | --- | --- | --- | --- | --- | --- |
| B1 | 23.8 ± 2.8 µM | 0.011 µmol/min/mg | 0.0133 ± 0.000333 s⁻¹ | 560 M⁻¹ s⁻¹ | 17.5 ± 2.0 µM | 0.0115 µmol/min/mg | 0.0133 ± 0.000167 s⁻¹ | 795 M⁻¹ s⁻¹ |
| B2 | 29.8 ± 2.5 µM | 0.0334 µmol/min/mg | 0.04 ± 0.000833 s⁻¹ | 1360 M⁻¹ s⁻¹ | 31.7 ± 2.9 µM | 0.0399 µmol/min/mg | 0.0483 ± 0.001 s⁻¹ | 1520 M⁻¹ s⁻¹ |
